A short description of experiment [1]: BIAcore binding of proteins to heparin immobilised on a biosensor chip. The following applies: for ka / kd / Kd: IL-4 WT and mutants binding to heparin; for ka: in M-1s-1 (unit assumed); for kd: in s-1 (unit assumed); for Kd: read-out: KD. The text has this:
This technology uses the optical phenomenon of surface plasmon resonance to monitor physical interactions between molecules. Passing the protein solution over a sensor surface to which the ligand is coupled monitors the real-time binding of proteins to an immobilized ligand. Detection is achieved by measuring refractive index changes very close to the sensor surface. When the refractive index is altered, the angle at which plasmon resonance occurs changes and this change directly correlates with the amount of protein interacting with the surface. A BIAcore 2000 is conveniently used. It is very sensitive and its microfluidics ensures that only small amounts of material are required.
The HLGAGs are immobilized on the biosensor chip. Intact HLGAGs are biotinylated via amino groups, or reducing termini modified with ammonia by reductive amination, using sulfo-NHS-biotin. Biotinylated HLGAGs are immobilized on streptavidin-coupled sensor chips. Solutions containing proteins of interest are injected over the sensor chip surface, and the binding is measured in real time (Fernig, In: Proteoglycan protocols, Ed. R.V. Iozzo, Humana Press, Totowa, N.J., USA, 2001). […] In all cases binding is specific, as there is little or no interaction with sensor chips lacking heparin with any of the targeted proteins, and binding is inhibited by exogenous heparin. Initial analyzes indicate that the binding of rhIL-5 to heparin has affinity constants of the order from 50-5×10^−9. Because unsubstituted amines are variably present in heparan sulfates from different tissues, an alternative method of biotin labeling is recommended for the heparan sulfate chip. In this case, heparan sulfate is labeled via oxidized cis-diol residues using biotinyl-LC-hydrazine. […]
Binding experiments with these proteins has indicated to which PECAM-1 domains heparin binds. Two binding assays were used: the assay where PECAM-1 is reacted with a BIAcore biosensor chip to which heparin has been immobilised and the second assay is the binding of PECAM-1 to heparan sulfate on the cell surface.
Site directed mutagenesis was performed on IL-4. Basic residues within the proposed heparin binding site were changed to alanine and the proteins expressed using the baculovirus expression system. The one exception was R88 which was changed to valine. Insect cell expressed proteins were purified on an anti-IL-4 affinity column and checked for purity by SDS-PAGE and silver staining. Mutant IL-4 proteins were examined for their ability to bind heparin immobilised on a biosensor chip and binding assessed using a BIAcore 2000.

A further experiment relates to TF1.8 cells. Description: TF1.8 bioassay of IL-4 mutants (support of proliferation). In kind it is cell-based, human. The following applies: for Conc needed for 50% growth, average: IL-4 wt and mutants, TF1.8 cells; for proliferative activity of IL-4 mutants: compared with WT. The method, then:
TF-1.8 cells have been transfected with the firefly luciferase gene contained in the expression vector, pPGK-puromycin-luciferase (Coombe et al., 1998, Supra). The positive transfectants are cloned to produce a line with good luciferase expression. The proliferation assays are carried out in 96-well microplates suitable for such assays Falcon). The wells are flat bottomed, with white sides and a clear bottom. Cells are washed to remove any cytokine in the growth medium and then resuspended in RPMI/5% w/v FCS. The cells are counted with a Coulter Multisizer (Coulter Electronics, England) and routinely 2.5×10^4 cells are added to microplate wells that contain either no IL-4 (negative control) or various dilutions of IL-4. When the effect of HLGAGs, chondroitin sulfate C, or the heparin fractions of a particular length, or heparin fragments of a particular length and structure is to be measured, the wells also contain various concentrations of these molecules.
The cells proliferate for 48 hours at 37° C. in a humidified atmosphere, after which the luciferase activity is measured by the addition of 50 μl of luciferase substrate buffer (50 mm Tris-HCl, pH 7.8, 15 mM MgSO4, 33.3 mM DTT, 0.1 mM EDTA, 0.5 mM Na-luciferin, 0.5 mM ATP, 0.25 mM lithium Co A and 0.5% v/v Triton X-100). Immediately after the addition of the luciferase buffer the plate is assayed for luciferase activity. Light emissions are detected on a Victor 1420 Multilabel counter (Wallac, Turku, Finland).
IL-4 mutants were compared with WT for their ability to support the proliferation of TF1.8 cells. Titration curves were performed for each of the mutants and the concentration needed to support 50% of cell growth was determined.

B1: βc: IL-3, IL-5 and GM-CSF common receptor β extracellular domain fused to flag tag (protein, UniProt P32927 17-443, looked up)
extracellular domain: WERSLAGAEETIPLQTLRCYNDYTSHITCRWADTQDAQRLVNVTLIRRVNEDLLEPVSCDLSDDMPWSACPHPRCVPRRCVIPCQSFVVTDVDYFSFQPDRPLGTRLTVTLTQHVQPPEPRDLQISTDQDHFLLTWSVALGSPQSHWLSPGDLEFEVVYKRLQDSWEDAAILLSNTSQATLGPEHLMPSSTYVARVRTRLAPGSRLSGRPSKWSPEVCWDSQPGDEAQPQNLECFFDGAAVLSCSWEVRKEVASSVSFGLFYKPSPDAGEEECSPVLREGLGSLHTRHHCQIPVPDPATHGQYIVSVQPRRAEKHIKSSVNIQMAPPSLNVTKDGDSYSLRWETMKMRYEHIDHTFEIQYRKDTATWKDSKTETLQNAHSMALPALEPSTRYWARVRVRTSRTGYNGIWSEWSEARSWDTESVLPMW
modifications: extracellular domain Flag tag
notes: IL-3, IL-5 and GM-CSF common receptor β extracellular domain fused to flag tag
B1: the “binding to immobilized heparin” value in experiment [1] (recombinant proteins, FIG. 2) is on record as “binds to heparin”.

B2: R85A: IL-4 mutant, baculovirus expressed (protein)
chain: HKCDITLQEIIKTLNSLTEQKTLCTELTVTDIFAASKNTTEKETFCRAATVLRQFYSHHEKDTRCLGATAQQFHRHKQLIRFLKALDRNLWGLAGLNSCPVKEANQSTLENFLERLKTIMREKYSKCSS
A word on the Kd: it is the concentration at which binding is half-saturated. With B2, in experiment [1], the “heparin binding of IL-4 mutant relative to wild type” value is “stronger binding than the wild type”, the ka worked out at 1.04E+05, the kd is recorded as 2.42E−03 and the Kd came to 23.4 nM. Besides, the “Conc needed for 50% growth, average” value with TF1.8 cells worked out at 0.71 ng/mL.

B3: K77A/K12A: IL-4 double mutant (protein, UniProt P05112 25-153, looked up, variant K77A K12A)
Interleukin-4: HKCDITLQEIIATLNSLTEQKTLCTELTVTDIFAASKNTTEKETFCRAATVLRQFYSHHEKDTRCLGATAQQFHRHAQLIRFLKRLDRNLWGLAGLNSCPVKEANQSTLENFLERLKTIMREKYSKCSS
With B3, in experiment [1], the ka was found to be 1.65E+04, the kd is 3.44E−03 and the Kd turned out to be 209 nM.

B4: E9A: IL-4 mutant, baculovirus expressed (protein)
chain: HKCDITLQAIIKTLNSLTEQKTLCTELTVTDIFAASKNTTEKETFCRAATVLRQFYSHHEKDTRCLGATAQQFHRHKQLIRFLKRLDRNLWGLAGLNSCPVKEANQSTLENFLERLKTIMREKYSKCSS
On to B4, for which, in experiment [1], the ka stood at 1.72E+05, the kd is 8.45E−03 and the Kd worked out at 49.3 nM. Also, in the experiment on TF1.8 cells, the “Conc needed for 50% growth, average” value amounted to 76.1 ng/mL and the “proliferative activity of IL-4 mutants” value was “markedly decreased proliferative activity”.

B5: K42A: IL-4 mutant, baculovirus expressed (protein)
chain: HKCDITLQEIIKTLNSLTEQKTLCTELTVTDIFAASKNTTEAETFCRAATVLRQFYSHHEKDTRCLGATAQQFHRHKQLIRFLKRLDRNLWGLAGLNSCPVKEANQSTLENFLERLKTIMREKYSKCSS
Turning to B5, in experiment [1], the ka was found to be 4.63E+04, the kd amounted to 2.50E−03 and the Kd worked out at 53.9 nM. Also, the “Conc needed for 50% growth, average” value with TF1.8 cells was 0.67 ng/mL.

B6: R81A: IL-4 mutant, baculovirus expressed (protein)
chain: HKCDITLQEIIKTLNSLTEQKTLCTELTVTDIFAASKNTTEKETFCRAATVLRQFYSHHEKDTRCLGATAQQFHRHKQLIAFLKRLDRNLWGLAGLNSCPVKEANQSTLENFLERLKTIMREKYSKCSS
For the molecule B6, in experiment [1], the ka is given as 2.43E+04, the kd worked out at 2.37E−03 and the Kd is 97.8 nM. In the experiment on TF1.8 cells, the “Conc needed for 50% growth, average” value came out at 4.85 ng/mL and the “proliferative activity of IL-4 mutants” value was “slightly decreased proliferative activity”.

B7: K77A/R88V: IL-4 double mutant (protein, UniProt P05112 25-153, looked up, variant K77A R88V)
Interleukin-4: HKCDITLQEIIKTLNSLTEQKTLCTELTVTDIFAASKNTTEKETFCRAATVLRQFYSHHEKDTRCLGATAQQFHRHAQLIRFLKRLDVNLWGLAGLNSCPVKEANQSTLENFLERLKTIMREKYSKCSS
On to B7, for which, in experiment [1], the ka is recorded as 1.36E+04, the kd was determined as 1.94E−03 and the Kd was 142 nM.

B8: H74A: IL-4 mutant, baculovirus expressed (protein, UniProt P05112 25-153, looked up, variant H74A)
Interleukin-4: HKCDITLQEIIKTLNSLTEQKTLCTELTVTDIFAASKNTTEKETFCRAATVLRQFYSHHEKDTRCLGATAQQFARHKQLIRFLKRLDRNLWGLAGLNSCPVKEANQSTLENFLERLKTIMREKYSKCSS
With B8, in experiment [1], the ka is 2.05E+04, the kd was 6.37E−04 and the Kd turned out to be 31.1 nM.

B9: E60A: IL-4 mutant, baculovirus expressed (protein)
chain: HKCDITLQEIIKTLNSLTEQKTLCTELTVTDIFAASKNTTEKETFCRAATVLRQFYSHHAKDTRCLGATAQQFHRHKQLIRFLKRLDRNLWGLAGLNSCPVKEANQSTLENFLERLKTIMREKYSKCSS
As to B9, in experiment [1], the ka was found to be 8.44E+04, the kd was 2.76E−03 and the Kd amounted to 32.7 nM.

B10: R53A: IL-4 mutant, baculovirus expressed (protein)
chain: HKCDITLQEIIKTLNSLTEQKTLCTELTVTDIFAASKNTTEKETFCRAATVLAQFYSHHEKDTRCLGATAQQFHRHKQLIRFLKRLDRNLWGLAGLNSCPVKEANQSTLENFLERLKTIMREKYSKCSS
Take B10: in experiment [1], the ka is given as 5.83E+04, the kd worked out at 5.40E−03 and the Kd was determined as 92.5 nM. Also, in the experiment on TF1.8 cells, the “Conc needed for 50% growth, average” value turned out to be 9.39 ng/mL and the “proliferative activity of IL-4 mutants” value is recorded as “slightly decreased proliferative activity”.

B11: D87A: IL-4 mutant, baculovirus expressed (protein, UniProt P05112 25-153, looked up, variant D87A)
Interleukin-4: HKCDITLQEIIKTLNSLTEQKTLCTELTVTDIFAASKNTTEKETFCRAATVLRQFYSHHEKDTRCLGATAQQFHRHKQLIRFLKRLARNLWGLAGLNSCPVKEANQSTLENFLERLKTIMREKYSKCSS
Turning to B11, in experiment [1], the ka was determined as 4.42E+04, the kd is 1.59E−03 and the Kd was 36 nM.

B12: K77A/R85A: IL-4 double mutant (protein, UniProt P05112 25-153, looked up, variant K77A R85A)
Interleukin-4: HKCDITLQEIIKTLNSLTEQKTLCTELTVTDIFAASKNTTEKETFCRAATVLRQFYSHHEKDTRCLGATAQQFHRHAQLIRFLKALDRNLWGLAGLNSCPVKEANQSTLENFLERLKTIMREKYSKCSS
With B12, in experiment [1], the ka is given as 1.51E+04, the kd turned out to be 1.78E−03 and the Kd is 117 nM.

B13: K84A: IL-4 mutant, baculovirus expressed (protein)
chain: HKCDITLQEIIKTLNSLTEQKTLCTELTVTDIFAASKNTTEKETFCRAATVLRQFYSHHEKDTRCLGATAQQFHRHKQLIRFLARLDRNLWGLAGLNSCPVKEANQSTLENFLERLKTIMREKYSKCSS
As to B13, in experiment [1], the ka is listed as 3.06E+04, the kd came out at 2.57E−03 and the dissociation constant Kd was found to be 83.9 nM. Moreover, in the experiment on TF1.8 cells, the “Conc needed for 50% growth, average” value was 2.95 ng/mL and the “proliferative activity of IL-4 mutants” value is reported as “slightly decreased proliferative activity”.

(Values after patent US8209131B2, “Therapeutic heparins and their binding to interleukins 4 and 5 and PECAM-1” (Curtin University of Technology, priority 2004, dated 2012).)
